Legend:
Experiment in all cases: BLI; Octet RED96; client biotinylated and loaded on streptavidin sensors; Spy or Spy variant in solution at 0.25, 0.5, 1, 1.5 and 2 μM; 40 mM HEPES, 150 mM NaCl, pH 7.5; Kd calculated as koff/kon
Conditions in all cases: both partners purified
[1] = molecular target: T1, Spy_(21-124) (UniProt P77754 44-147)
T1 construct: source: E. coli BL21 (DE3), purified (Ni-NTA, cation exchange, SEC); not shown: His6, N-terminal, cleaved; SUMO, N-terminal, cleaved
T1 sequence (looked up): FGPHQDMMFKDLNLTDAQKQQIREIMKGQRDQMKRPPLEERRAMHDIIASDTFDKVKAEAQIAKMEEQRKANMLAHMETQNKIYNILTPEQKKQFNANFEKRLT
How it was run: (§1)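 Client proteins were biotinylated with EZ-link NHS-biotin at a 1:1 molar ratio, loaded onto streptavidin sensors, and measured by biolayer interferometry on an Octet RED96. The loaded sensors were dipped into 40 mM HEPES, 150 mM NaCl, pH 7.5 holding the analyte protein at 0.25, 0.5, 1, 1.5 or 2 μM, then moved to buffer without it. Fitting the wavelength-shift association and dissociation curves in SigmaPlot 12.0 gave the observed association rate and koff, kon was taken from the observed rate plotted against analyte concentration, and Kd was calculated as koff/kon.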

[2] = molecular target: T2, Spy_(29-127) (UniProt P77754 52-150)
T2 construct: Spy chaperone, residues 29-127; source: E. coli BL21 (DE3), purified (Ni-NTA, cation exchange, SEC); not shown: His6, N-terminal, cleaved; SUMO, N-terminal, cleaved
T2 sequence (looked up): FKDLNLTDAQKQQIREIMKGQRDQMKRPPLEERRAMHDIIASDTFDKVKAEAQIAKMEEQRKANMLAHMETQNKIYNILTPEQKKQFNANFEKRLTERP
How it was run: as §1

[3] = molecular target: T3, Spy wild type (Spy_(1-138)) (UniProt P77754 24-161)
T3 construct: Spy, ATP-independent periplasmic chaperone; also called WT; wt; source: E. coli BL21 (DE3), purified (Ni-NTA, cation exchange, SEC); not shown: His6, N-terminal, cleaved; SUMO, N-terminal, cleaved
T3 sequence (looked up): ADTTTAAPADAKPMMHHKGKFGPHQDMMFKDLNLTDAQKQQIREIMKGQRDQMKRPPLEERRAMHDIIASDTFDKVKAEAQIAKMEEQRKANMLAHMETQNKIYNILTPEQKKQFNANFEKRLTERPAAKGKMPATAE
How it was run: as §1

[4] = molecular target: T4, Spy_(24-127) (UniProt P77754 47-150)
T4 construct: Spy chaperone, residues 24-127; source: E. coli BL21 (DE3), purified (Ni-NTA, cation exchange, SEC); not shown: His6, N-terminal, cleaved; SUMO, N-terminal, cleaved
T4 sequence (looked up): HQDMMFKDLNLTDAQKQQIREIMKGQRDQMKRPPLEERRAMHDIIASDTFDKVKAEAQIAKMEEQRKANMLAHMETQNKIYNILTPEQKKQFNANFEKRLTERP
How it was run: as §1

[5] = molecular target: T5, Spy_(24-124) (UniProt P77754 47-147)
T5 construct: source: E. coli BL21 (DE3), purified (Ni-NTA, cation exchange, SEC); not shown: His6, N-terminal, cleaved; SUMO, N-terminal, cleaved
T5 sequence (looked up): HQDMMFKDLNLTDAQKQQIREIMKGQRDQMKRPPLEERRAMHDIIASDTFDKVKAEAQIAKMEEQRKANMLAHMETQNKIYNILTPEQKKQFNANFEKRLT
How it was run: as §1

[6] = molecular target: T6, Spy_(1-124) (UniProt P77754 24-147)
T6 construct: source: E. coli BL21 (DE3), purified (Ni-NTA, cation exchange, SEC); not shown: His6, N-terminal, cleaved; SUMO, N-terminal, cleaved
T6 sequence (looked up): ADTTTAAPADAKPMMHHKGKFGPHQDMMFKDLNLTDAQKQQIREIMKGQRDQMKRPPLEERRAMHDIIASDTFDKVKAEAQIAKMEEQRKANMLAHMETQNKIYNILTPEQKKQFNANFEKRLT
How it was run: as §1

[7] = molecular target: T7, Spy_(24-130) (UniProt P77754 47-153)
T7 construct: Spy chaperone, residues 24-130; source: E. coli BL21 (DE3), purified (Ni-NTA, cation exchange, SEC); not shown: His6, N-terminal, cleaved; SUMO, N-terminal, cleaved
T7 sequence (looked up): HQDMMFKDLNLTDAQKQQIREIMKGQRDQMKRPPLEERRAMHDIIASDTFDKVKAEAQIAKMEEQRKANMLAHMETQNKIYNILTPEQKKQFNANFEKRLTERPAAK
How it was run: as §1

[8] = molecular target: T8, Spy_(27-130) (UniProt P77754 50-153)
T8 construct: Spy chaperone, residues 27-130; source: E. coli BL21 (DE3), purified (Ni-NTA, cation exchange, SEC); not shown: His6, N-terminal, cleaved; SUMO, N-terminal, cleaved
T8 sequence (looked up): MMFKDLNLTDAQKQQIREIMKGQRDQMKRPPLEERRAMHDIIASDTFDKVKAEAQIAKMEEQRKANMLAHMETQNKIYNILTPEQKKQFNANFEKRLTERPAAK
How it was run: as §1

koff [1]: 0.487 s⁻¹
koff [2]: 0.095 s⁻¹
koff [3]: 0.179 s⁻¹
koff [4]: 0.39 s⁻¹
koff [5]: 0.423 s⁻¹
koff [6]: 0.188 s⁻¹
koff [7]: 0.3 s⁻¹
koff [8]: 0.092 s⁻¹
B1: Im7 H40W L53A I54A (natural protein)
chain: MELKNSISDYTEAEFVQLLKEIEKENVAATDDVLDVLLEWFVKITEHPDGTDAAYYPSDNRDDSPEGIVKEIKEWRAANGKPGFKQG
modifications: biotin (EZ-link NHS-biotin, 1:1 molar ratio of biotin to protein)
notes: Im7 (colicin E7 immunity protein) with H40W L53A I54A; Spy was made with an N-terminal His6-SUMO tag that was cleaved; also called Im7AAW; partially folded client; source: purified by a similar procedure to Spy
